Legend:
[1] = target: HLA-A*30:01; assay: IEDB peptide-MHC binding, purified MHC/competitive/radioactivity; filed as Kd, often an IC50 or EC50 that approximates it; ≥ and ≤ were set here for values at or beyond the usual limits of such assays
[2] = target: HLA-A*02:01; assay: IEDB peptide-MHC binding, purified MHC/competitive/fluorescence; ≥ and ≤ were set here for values at or beyond the usual limits of such assays
[3] = target: HLA-A*02:01; assay: IEDB peptide-MHC binding, purified MHC/direct/fluorescence; filed as Kd, often an IC50 or EC50 that approximates it; ≥ and ≤ were set here for values at or beyond the usual limits of such assays
[4] = target: HLA-A*69:01; assay: as above
[5] = target: HLA-B*15:01; assay: as above
[6] = target: HLA-B*51:01; assay: IEDB peptide-MHC binding, purified MHC/competitive/radioactivity; filed as Kd, often an IC50 or EC50 that approximates it; ≥ and ≤ were set here for values at or beyond the usual limits of such assays
[7] = target: HLA-A*68:01; assay: as above
[8] = target: HLA-A*33:01; assay: as above; conditions: source organism: SARS coronavirus Tor2
[9] = target: HLA-B*27:05; assay: IEDB peptide-MHC binding, purified MHC/direct/fluorescence; filed as Kd, often an IC50 or EC50 that approximates it; ≥ and ≤ were set here for values at or beyond the usual limits of such assays; conditions: source organism: SARS-CoV1
[10] = target: HLA-A*31:01; assay: as above; conditions: source organism: SARS-CoV1
[11] = target: HLA-A*32:01; assay: IEDB peptide-MHC binding, purified MHC/competitive/radioactivity; filed as Kd, often an IC50 or EC50 that approximates it; ≥ and ≤ were set here for values at or beyond the usual limits of such assays
[12] = target: HLA-A*02:01; assay: IEDB peptide-MHC binding, purified MHC/competitive/fluorescence; filed as Kd, often an IC50 or EC50 that approximates it; ≥ and ≤ were set here for values at or beyond the usual limits of such assays
[13] = target: HLA-A*26:01; assay: IEDB peptide-MHC binding, purified MHC/competitive/radioactivity; filed as Kd, often an IC50 or EC50 that approximates it; ≥ and ≤ were set here for values at or beyond the usual limits of such assays; conditions: source organism: Dengue virus 3 Martinique/1243/1999
[14] = target: HLA-B*40:01; assay: IEDB peptide-MHC binding, purified MHC/direct/fluorescence; filed as Kd, often an IC50 or EC50 that approximates it; ≥ and ≤ were set here for values at or beyond the usual limits of such assays; conditions: source organism: Mycobacterium tuberculosis variant bovis
[15] = target: HLA-A*30:02; assay: IEDB peptide-MHC binding, purified MHC/competitive/radioactivity; filed as Kd, often an IC50 or EC50 that approximates it; ≥ and ≤ were set here for values at or beyond the usual limits of such assays
[16] = target: HLA-A*01:01; assay: IEDB peptide-MHC binding, purified MHC/direct/fluorescence; filed as Kd, often an IC50 or EC50 that approximates it; ≥ and ≤ were set here for values at or beyond the usual limits of such assays
[17] = target: HLA-A*03:01; assay: as above; conditions: source organism: Homo sapiens
[18] = target: HLA-B*58:01; assay: as above; conditions: source organism: Homo sapiens
[19] = target: HLA-A*01:01; assay: IEDB peptide-MHC binding, purified MHC/competitive/radioactivity; filed as Kd, often an IC50 or EC50 that approximates it; ≥ and ≤ were set here for values at or beyond the usual limits of such assays; conditions: source organism: Dengue virus 4 Philippines/H241/1956
[20] = source organism: Dengue virus 1 Brazil/97-11/1997
[21] = source organism: Vaccinia virus WR
[22] = source organism: Zaire ebolavirus
[23] = source organism: Haemophilus influenzae
[24] = source organism: Dengue virus 4 Philippines/H241/1956
[25] = source organism: Dengue virus 3 Martinique/1243/1999
[26] = source organism: Entamoeba histolytica HM-1:IMSS
[27] = source organism: Dengue virus 2 Jamaica/1409/1983

For AEALKGMPIR, the Kd [1, 20] was 1260 nM.
Sequence AFGLYKSIN has an IC50 [2, 21] of no less than 245000 nM.
AKLTEAITA showed an IC50 [2, 22] of 28600 nM.
Work on ALGYTTEEI yielded a Kd [3, 23] of 338 nM and a Kd [4, 23] of 7480 nM.
Work on AMVPLVMVI yielded a Kd [3, 23] of 435 nM, a Kd [5, 23] of 834 nM and a Kd [4, 23] of 3430 nM.
APCKVPIEI showed a Kd [6, 24] of no less than 77400 nM.
Sequence ATFSVPMEK has a Kd ([7]; source organism: SARS coronavirus Tor2) of 0.161 nM, a Kd [8] of 14500 nM and a Kd [9] of 19000 nM. For the same sequence, the Kd [10] was 141 nM.
Work on ATYEPDVDL yielded a Kd ([11]; source organism: Dengue virus 2 Peru/IQT2913/1996) of 7390 nM.
Sequence CFKPALPTL has a Kd ([1]; source organism: Vaccinia virus Copenhagen) of 72 nM.
In the case of DARVYADPMA, the Kd [1, 24] is reported as 9270 nM.
DLKPENILL was tested, and the Kd ([12]; source organism: Entamoeba histolytica) was no less than 20000 nM.
Sequence DPFPQSNSPI has a Kd [6, 24] of 733 nM.
For DVFYLPPEK, the Kd [7, 25] was 5.57 nM and the Kd [1, 25] was 1370 nM.
EDMLSVWNRV showed a Kd [11, 20] of no less than 34400 nM.
Work on ELNYVLWEGG yielded a Kd [11, 24] of 9340 nM.
ETENILTVL showed a Kd [13] of 2940 nM.
FEGIAVLGL showed a Kd [14] of 67.6 nM.
FLWVIILFQ showed an IC50 [2, 22] of 12700 nM.
FNYCEGTTVV was tested, and the Kd [6, 25] was 1220 nM.
GAVKYLEGH gave an IC50 [2, 22] of no less than 521000 nM.
For GLCTLVAM, the Kd ([12]; source organism: Human herpesvirus 4 strain B95-8) was 2370 nM.
GMLECGFPT showed a Kd [3, 26] of 4.8 nM and a Kd [4, 26] of no less than 5000 nM.
GRLITVNPIV gave a Kd [1, 27] of no less than 20400 nM.
Sequence GTLEFTPID has an IC50 [2, 21] of no less than 132000 nM.
GVKRLEELL gave an IC50 [2, 22] of 49200 nM.
GVVTKNGGY showed a Kd [13] of 1210 nM and a Kd [15, 25] of no less than 61300 nM.
Work on HINALEYII yielded a Kd [11, 21] of 631 nM.
For HLMFYTLPI, the Kd [11, 21] was 0.177 nM.
HTRDPQNAA showed a Kd [1, 21] of 0.907 nM.
For HWFSRENSY, the Kd [15, 25] was 246 nM.
IALFLAHAI gave a Kd [6, 20] of 135 nM.
IGNEEFLDY gave a Kd [15, 25] of 961 nM.
Work on IIHDFIDNP yielded an IC50 ([2]; source organism: Sudan ebolavirus) of no less than 85400 nM.
Sequence ILTLANWCL has a Kd ([12]; source organism: Escherichia coli O139:H28 str. E24377A) of 0.2 nM.
IMAKNEVFCV was tested, and the IC50 ([2]; source organism: Hepatitis C virus genotype 1) was 5000 nM.
IQGTLAKAY was tested, and the Kd ([5]; source organism: Rickettsia prowazekii) was 215 nM.
With ISEKLRSGY the Kd ([16]; source organism: Influenza A virus (A/Kinmen/645/04(H3N2))) was 467 nM.
IVREAIKRK was tested, and the Kd [1, 20] was 97.7 nM.
For KAKGSRAIWY, the Kd [15, 27] was 6.68 nM.
In the case of KIDTTHVSKV, the Kd ([12]; source organism: Vaccinia virus Tian Tan) is reported as 206 nM.
For KIEIERKKL, the Kd [12, 21] was 422 nM.
Work on KIKDVSYND yielded an IC50 ([2]; source organism: Vaccinia virus) of no less than 571000 nM.
Sequence KLITFLFVI has a Kd [11, 21] of 0.409 nM.
Sequence KLKFRFIIR has a Kd [1, 21] of 119 nM.
In the case of KLKIALAKG, the Kd [1, 21] is reported as 479 nM.
Sequence KLKPRWLDA has a Kd [1, 27] of 21 nM.
With KMEALQRKY the Kd ([15]; source organism: Dengue virus 2 16681-PDK53) was 61.4 nM.
KMSILGVSI was tested, and the Kd [11, 21] was 2.36 nM.
KNENDQYIY was tested, and the Kd [15, 27] was 0.15 nM.
KSDLQPPNY gave a Kd ([16]; source organism: Homo sapiens) of 55 nM, a Kd ([4]; source organism: Homo sapiens) of 1330 nM and a Kd [17] of 18700 nM. For the same sequence, the Kd [18] was 220 nM.
Work on KSWGKAKII yielded a Kd [11, 20] of 47.4 nM.
KTETTILDV was tested, and the Kd [19] was 6200 nM.
KTISMLIEV gave a Kd [1, 21] of 580 nM.
Sequence KTSCSKNEA has a Kd [1, 21] of 72.2 nM.
Sequence KVKSYNYML has a Kd [1, 21] of 0.175 nM.
In the case of KVLFLQQSI, the Kd [11, 21] is reported as 0.704 nM.
KVYINHPFM was tested, and the Kd [1, 21] was 0.517 nM.
In the case of LAAIANQAV, the Kd [6, 25] is reported as 1360 nM.
LAIPPTAGI gave a Kd [6, 20] of 393 nM.
Work on LMDMITLSL yielded a Kd [11, 21] of 29.7 nM.
Work on LMHAPAFET yielded an IC50 ([2]; source organism: Human alphaherpesvirus 1 strain 17) of 2000 nM.
LPLPWTAGA showed a Kd ([6]; source organism: Dengue virus 4 Dominica/814669/1981) of 2830 nM.

— the Immune Epitope Database (IEDB)
